{"source": "patent US20240270804", "molecular_target": "T1, myc- and green-fluorescent protein (GFP) tagged mAKAP 1694-1833 (UniProt Q9WVC7)", "T1 sequence": "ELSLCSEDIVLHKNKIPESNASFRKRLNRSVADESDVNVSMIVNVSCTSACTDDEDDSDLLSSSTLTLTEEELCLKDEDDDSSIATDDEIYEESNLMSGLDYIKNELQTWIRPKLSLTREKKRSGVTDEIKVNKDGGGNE", "data": [{"substance": "endogenous CaMKII (Ca2+/calmodulin-dependent protein kinase II) of neonatal rat ventricular myocytes", "values": [{"measurement": "HDAC4 phosphorylation (basal and Angiotensin II-induced) in neonatal myocytes", "value": "both basal and Angiotensin II-induced HDAC4 phosphorylation in neonatal myocytes is inhibited by mAKAP 1694-1833 expression"}]}]}
